The target in experiment [1] is T1, CRP (UniProt P02741 19-224).
T1 construct: Bought protein coated on plates; also called C reactive protein
T1 sequence (looked up): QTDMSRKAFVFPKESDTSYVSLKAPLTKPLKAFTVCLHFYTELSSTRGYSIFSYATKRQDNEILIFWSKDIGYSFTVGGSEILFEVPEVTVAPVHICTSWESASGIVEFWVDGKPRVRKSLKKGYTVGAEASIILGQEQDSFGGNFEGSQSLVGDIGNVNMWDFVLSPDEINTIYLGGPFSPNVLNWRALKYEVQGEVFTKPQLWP
In words: plate binding ELISA on coated CRP, HEK293 supernatant; fold vs (-) control pCTM395 supernatant.

For experiment [2], the target named is T2, C3b protein (UniProt P01024 23-667; P01024 749-1663, limits assumed).
T2 construct: domain: C3b; Bought protein coated on plates
The experiment in a line: plate binding ELISA on coated C3b, HEK293 supernatant 25 ng/mL; fold vs (-) control pCTM395 supernatant. On the procedure: The C3b binding assay uses C3b protein (Complement Technology, Cat. #A114) diluted with 50 mM carbonate coating buffer (pH 9.6) at a final concentration of 50 μM. A total of 100 μl of C3b/carbonate solution was added to each well of a black MaxiSorp 96-wellmicroplate, covered and incubated overnight at 4° C. Blank control wells were incubated with carbonate coating buffer containing no C3b protein. Wells were washed 3 times with 300 μl PBST then blocked for 1 hour with reagent dilution buffer (1% BSA in PBS). Wells were washed again 3 times with 300 μl PBST. […] The plate was washed as above then incubated for 1 hour with anti-CFH/CFHT biotinylated aCTM87b antibody (OX-24, AbCam, Cat. #ab112197) at 1:1000 dilution. The plates were washed as above, then incubated for 1 hour with high sensitivity Streptavidin-HRP (Pierce Cat. #21130) at 1:10,000, washed as above then incubated for 5 minutes with SuperSignal ELISA Pico Chemiluminescent Substrate (Thermo Scientific, Cat. #37069) before detection using the BioTek Synergy4 plate reader.
For C3b assays, 25 ng/mL of CFHT protein-containing supernatant was added to plates coated with C3b.

The target in another experiment is C3 convertase, C3bBb (UniProt P01024 23-1663; P00751 260-764, limits assumed). The experiment in a line: cell-based or functional assay.
The next experiment has as its target T3, C3d ligand (UniProt P01024 1002-1303, limits assumed).
T3 construct: domain: C3d
The experiment in a line: plate binding assay on C3d, purified protein; fold vs CFHT-I62.

Experiment [3] has as its target T2, C3b protein. The experiment in a line: plate binding ELISA on coated C3b, purified protein; fold vs CFHT-I62. The procedure:
The C3b binding assay uses C3b protein (Complement Technology, Cat. #A114) diluted with 50 mM carbonate coating buffer (pH 9.6) at a final concentration of 50 μM. A total of 100 μl of C3b/carbonate solution was added to each well of a black MaxiSorp 96-wellmicroplate, covered and incubated overnight at 4° C. Blank control wells were incubated with carbonate coating buffer containing no C3b protein. Wells were washed 3 times with 300 μl PBST then blocked for 1 hour with reagent dilution buffer (1% BSA in PBS). Wells were washed again 3 times with 300 μl PBST. Dilutions of recombinant protective CFH, CFHT, oCFHT or supernatant from transiently transfected or transduced Cos-7 cells were prepared in reagent dilution buffer, added to wells in triplicate and incubated for 1 hour at room temperature. The plate was washed as above then incubated for 1 hour with anti-CFH/CFHT biotinylated aCTM87b antibody (OX-24, AbCam, Cat. #ab112197) at 1:1000 dilution. The plates were washed as above, then incubated for 1 hour with high sensitivity Streptavidin-HRP (Pierce Cat. #21130) at 1:10,000, washed as above then incubated for 5 minutes with SuperSignal ELISA Pico Chemiluminescent Substrate (Thermo Scientific, Cat. #37069) before detection using the BioTek Synergy4 plate reader. […]

The target of experiment [4] is T1, CRP. In words: plate binding ELISA on coated CRP, purified protein; fold vs CFHT-I62.
Experiment [5] concerns the target T2, C3b protein. The experiment in a line: plate binding ELISA on coated C3b; fold vs (-) control pCTM395 supernatant.
The target of experiment [6] is T1, CRP. The experiment in a line: plate binding ELISA on coated CRP; fold vs (-) control pCTM395 supernatant.

T2 sequence (P01024 23-667 limits assumed, chain 1 of 2): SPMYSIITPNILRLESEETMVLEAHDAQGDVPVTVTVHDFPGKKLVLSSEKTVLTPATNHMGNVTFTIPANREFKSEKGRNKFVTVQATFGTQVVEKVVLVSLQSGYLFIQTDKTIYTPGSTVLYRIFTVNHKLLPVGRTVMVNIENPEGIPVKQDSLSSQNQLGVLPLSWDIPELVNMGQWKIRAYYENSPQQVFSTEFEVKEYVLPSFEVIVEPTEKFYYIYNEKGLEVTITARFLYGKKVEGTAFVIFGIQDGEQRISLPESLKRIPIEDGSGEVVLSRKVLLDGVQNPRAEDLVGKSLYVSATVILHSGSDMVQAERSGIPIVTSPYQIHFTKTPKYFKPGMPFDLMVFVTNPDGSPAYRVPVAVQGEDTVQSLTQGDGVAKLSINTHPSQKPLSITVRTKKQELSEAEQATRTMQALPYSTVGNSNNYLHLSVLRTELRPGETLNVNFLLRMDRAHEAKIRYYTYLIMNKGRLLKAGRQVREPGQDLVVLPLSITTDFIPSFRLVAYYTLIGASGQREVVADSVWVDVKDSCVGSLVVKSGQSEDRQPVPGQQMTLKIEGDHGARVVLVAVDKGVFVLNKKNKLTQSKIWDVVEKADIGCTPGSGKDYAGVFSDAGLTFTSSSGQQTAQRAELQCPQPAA
T2 sequence (P01024 749-1663 limits assumed, chain 2 of 2): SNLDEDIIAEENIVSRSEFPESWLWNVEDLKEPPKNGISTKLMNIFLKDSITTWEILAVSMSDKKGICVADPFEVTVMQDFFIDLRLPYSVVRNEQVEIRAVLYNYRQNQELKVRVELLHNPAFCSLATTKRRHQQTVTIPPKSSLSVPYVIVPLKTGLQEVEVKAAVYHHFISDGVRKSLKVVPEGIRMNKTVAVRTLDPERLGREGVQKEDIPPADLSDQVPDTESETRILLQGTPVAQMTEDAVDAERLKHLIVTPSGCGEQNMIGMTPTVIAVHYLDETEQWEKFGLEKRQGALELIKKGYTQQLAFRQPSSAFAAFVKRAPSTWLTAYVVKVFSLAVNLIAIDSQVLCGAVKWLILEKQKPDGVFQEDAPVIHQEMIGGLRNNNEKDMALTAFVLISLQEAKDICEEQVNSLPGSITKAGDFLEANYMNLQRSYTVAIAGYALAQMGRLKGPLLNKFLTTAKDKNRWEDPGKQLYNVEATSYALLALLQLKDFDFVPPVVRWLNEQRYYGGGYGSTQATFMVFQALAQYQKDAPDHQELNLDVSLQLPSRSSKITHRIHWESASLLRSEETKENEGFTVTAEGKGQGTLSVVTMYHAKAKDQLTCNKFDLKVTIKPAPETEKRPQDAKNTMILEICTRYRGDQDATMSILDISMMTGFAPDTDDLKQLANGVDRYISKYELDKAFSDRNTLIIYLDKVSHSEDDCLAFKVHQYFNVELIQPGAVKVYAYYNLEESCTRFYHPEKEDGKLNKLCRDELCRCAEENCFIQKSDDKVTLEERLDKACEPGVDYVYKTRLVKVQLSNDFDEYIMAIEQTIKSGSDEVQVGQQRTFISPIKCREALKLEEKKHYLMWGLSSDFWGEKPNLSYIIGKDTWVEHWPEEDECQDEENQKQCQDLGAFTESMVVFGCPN
T3 sequence (P01024 1002-1303 limits assumed): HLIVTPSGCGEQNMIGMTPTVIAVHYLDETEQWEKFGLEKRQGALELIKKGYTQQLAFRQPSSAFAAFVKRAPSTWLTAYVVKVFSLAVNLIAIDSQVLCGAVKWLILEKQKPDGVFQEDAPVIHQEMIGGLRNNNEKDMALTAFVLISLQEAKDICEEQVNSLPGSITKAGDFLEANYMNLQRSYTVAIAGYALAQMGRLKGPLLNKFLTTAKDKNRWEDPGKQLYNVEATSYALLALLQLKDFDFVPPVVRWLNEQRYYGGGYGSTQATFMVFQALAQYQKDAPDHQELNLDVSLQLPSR
Chain of C3 convertase, C3bBb (P01024 23-1663 limits assumed, chain 1 of 2): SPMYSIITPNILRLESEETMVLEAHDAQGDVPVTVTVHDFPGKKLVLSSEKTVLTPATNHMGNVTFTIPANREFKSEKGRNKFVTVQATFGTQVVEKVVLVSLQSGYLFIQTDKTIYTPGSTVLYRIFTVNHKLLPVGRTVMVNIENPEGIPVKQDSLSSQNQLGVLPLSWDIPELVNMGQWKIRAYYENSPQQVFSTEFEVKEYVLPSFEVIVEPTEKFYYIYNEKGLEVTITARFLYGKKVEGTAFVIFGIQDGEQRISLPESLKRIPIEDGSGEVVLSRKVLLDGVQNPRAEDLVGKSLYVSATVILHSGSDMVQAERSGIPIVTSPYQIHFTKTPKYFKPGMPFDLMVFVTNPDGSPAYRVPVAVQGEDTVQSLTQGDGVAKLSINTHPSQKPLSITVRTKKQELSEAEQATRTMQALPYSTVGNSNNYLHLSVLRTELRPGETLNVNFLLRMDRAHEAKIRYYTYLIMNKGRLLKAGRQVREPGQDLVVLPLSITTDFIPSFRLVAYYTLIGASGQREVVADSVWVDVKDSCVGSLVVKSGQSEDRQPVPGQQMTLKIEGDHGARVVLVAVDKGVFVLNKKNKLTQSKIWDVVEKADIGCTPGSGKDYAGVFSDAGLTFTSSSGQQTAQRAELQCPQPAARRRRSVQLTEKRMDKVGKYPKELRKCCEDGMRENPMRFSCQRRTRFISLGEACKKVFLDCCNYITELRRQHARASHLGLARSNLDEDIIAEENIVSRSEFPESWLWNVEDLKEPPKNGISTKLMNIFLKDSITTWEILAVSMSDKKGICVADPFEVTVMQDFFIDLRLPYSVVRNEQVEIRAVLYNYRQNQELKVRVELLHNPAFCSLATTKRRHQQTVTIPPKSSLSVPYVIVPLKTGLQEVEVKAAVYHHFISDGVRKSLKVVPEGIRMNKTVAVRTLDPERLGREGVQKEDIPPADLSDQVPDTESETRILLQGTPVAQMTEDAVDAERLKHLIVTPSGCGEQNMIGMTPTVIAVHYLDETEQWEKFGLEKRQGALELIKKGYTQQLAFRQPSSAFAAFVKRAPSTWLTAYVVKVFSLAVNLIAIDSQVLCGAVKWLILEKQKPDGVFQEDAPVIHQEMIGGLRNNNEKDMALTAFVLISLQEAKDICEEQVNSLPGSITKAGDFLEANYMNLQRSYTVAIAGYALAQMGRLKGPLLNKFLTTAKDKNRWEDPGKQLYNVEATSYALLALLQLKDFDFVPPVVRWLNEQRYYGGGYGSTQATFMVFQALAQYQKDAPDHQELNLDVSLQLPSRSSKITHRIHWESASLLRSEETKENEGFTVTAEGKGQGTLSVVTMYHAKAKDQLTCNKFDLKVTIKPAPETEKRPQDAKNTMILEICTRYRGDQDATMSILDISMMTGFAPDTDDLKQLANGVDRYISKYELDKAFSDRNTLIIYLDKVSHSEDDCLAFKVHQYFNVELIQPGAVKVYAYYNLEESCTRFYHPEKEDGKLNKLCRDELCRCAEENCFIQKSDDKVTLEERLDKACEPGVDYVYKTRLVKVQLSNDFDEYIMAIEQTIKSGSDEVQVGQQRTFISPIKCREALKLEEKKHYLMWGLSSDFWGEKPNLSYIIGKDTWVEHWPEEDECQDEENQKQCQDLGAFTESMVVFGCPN
Chain of C3 convertase, C3bBb (P00751 260-764 limits assumed, chain 2 of 2): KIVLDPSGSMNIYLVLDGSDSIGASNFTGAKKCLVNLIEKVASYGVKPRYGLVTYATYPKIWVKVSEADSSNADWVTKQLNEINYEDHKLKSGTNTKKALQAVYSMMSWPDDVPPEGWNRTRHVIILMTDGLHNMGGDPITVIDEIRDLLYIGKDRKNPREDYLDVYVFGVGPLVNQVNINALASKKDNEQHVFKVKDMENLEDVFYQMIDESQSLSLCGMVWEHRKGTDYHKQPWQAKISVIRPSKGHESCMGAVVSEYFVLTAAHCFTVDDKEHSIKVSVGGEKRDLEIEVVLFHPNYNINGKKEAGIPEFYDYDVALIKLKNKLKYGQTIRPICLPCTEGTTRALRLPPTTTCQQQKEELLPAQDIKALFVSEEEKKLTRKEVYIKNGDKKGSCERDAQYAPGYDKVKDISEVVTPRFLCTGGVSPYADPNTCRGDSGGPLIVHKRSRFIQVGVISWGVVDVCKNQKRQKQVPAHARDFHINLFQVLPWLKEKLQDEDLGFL

B1: His-mCFHT.2 (pCTM460) (other)
chain: EDCNELPPRRNTEILTGSWSDQTYPEGTQAIYKCRPGYRSLGNIIMVCRKGEWVALNPLRKCQKRPCGHPGDTPFGTFTLTGGNVFEYGVKAVYTCNEGYQLLGEINYRECDTDGWTNDIPICEVVKCLPVTAPENGKIVSSAMEPDREYHFGQAVRFVCNSGYKIEGDEEMHCSDDGFWSKEKPKCVEISCKSPDVINGSPISQKIIYKENERFQYKCNMGYEYSERGDAVCTESGWRPLPSCEEKSCDNPYIPNGDYSPLRIKHRTGDEITYQCRNGFYPATRGNTAKCTSTGWIPAPRCTLKPCDYPDIKHGGLYHENMRRPYFPVAVGKYYSYYCDEHFETPSGSYWDHIHCTQDGWSPAVPCLRKCYFPYLENGYNQNYGRKFVQGKSIDVACHPGYALPKAQTTVTCMENGWSPTPRCIRVRKCYFPYLENGYNQNYGRKFVQGKSIDVACHPGYALPKAQTTVTCMENGWSPTPRCIRVRKCYFPYLENGYNQNYGRKFVQGKSIDVACHPGYALPKAQTTVTCMENGWSPTPRCIRVSFTL
notes: Protective CFHT with two additional C-terminal SCR7 domains; no residue range stated; HEK293 supernatant; not shown: N-terminal 6x His-TEV tag (87 bp, 29 residues by transgene size: 1791 against 1704)
As to B1, the “Fold Activity at Highest Dose (Relative to Control)” value in the experiment with CRP [1] worked out at 49 fold; with C3b protein [2], 99 fold.

B2: His-mCFHT.1 (pCTM459) (other, not shown: small tags and cut ends)
chain: EDCNELPPRRNTEILTGSWSDQTYPEGTQAIYKCRPGYRSLGNIIMVCRKGEWVALNPLRKCQKRPCGHPGDTPFGTFTLTGGNVFEYGVKAVYTCNEGYQLLGEINYRECDTDGWTNDIPICEVVKCLPVTAPENGKIVSSAMEPDREYHFGQAVRFVCNSGYKIEGDEEMHCSDDGFWSKEKPKCVEISCKSPDVINGSPISQKIIYKENERFQYKCNMGYEYSERGDAVCTESGWRPLPSCEEKSCDNPYIPNGDYSPLRIKHRTGDEITYQCRNGFYPATRGNTAKCTSTGWIPAPRCTLKPCDYPDIKHGGLYHENMRRPYFPVAVGKYYSYYCDEHFETPSGSYWDHIHCTQDGWSPAVPCLRKCYFPYLENGYNQNYGRKFVQGKSIDVACHPGYALPKAQTTVTCMENGWSPTPRCIRVRKCYFPYLENGYNQNYGRKFVQGKSIDVACHPGYALPKAQTTVTCMENGWSPTPRCIRVSFTL
notes: Protective CFHT with one additional C-terminal SCR7 domain; also called purified recombinant mCFHT.1
On to B2, for which, in the experiment with C3 convertase, C3bBb, the “IC50, decay acceleration activity (DAA) assay” value worked out at 0.0155 µM. In addition, in the experiment with C3 convertase, C3bBb, the “fold less active than unmodified CFHT, DAA assay” value turned out to be 8 fold. The “Fold Activity (Compared to CFHT-I62)” value with C3d ligand is 3.8 fold; in the experiment with C3b protein [3], 40.1 fold; with CRP [4] it was 12.2 fold. Also, the “Fold Activity at Highest Dose (Relative to Control)” value with CRP [1] came to 6.3 fold; in the experiment with C3b protein [2] it was 43 fold.

B3: His-dCFHT.0 (pCTM462) (other)
chain: EATFCDFPKINHGILYDEEKYKPFSQVPTGEVFYYSCEYNFVSPSKSFWTRITCTEEGWSPTPKCLRLCFFPFVENGHSESSGQTHLEGDTVQIICNTGYRLQNNENNISCVERGWSTPPKCRSGGGGSGGGGSEDCNELPPRRNTEILTGSWSDQTYPEGTQAIYKCRPGYRSLGNIIMVCRKGEWVALNPLRKCQKRPCGHPGDTPFGTFTLTGGNVFEYGVKAVYTCNEGYQLLGEINYRECDTDGWTNDIPICEVVKCLPVTAPENGKIVSSAMEPDREYHFGQAVRFVCNSGYKIEGDEEMHCSDDGFWSKEKPKCVEISCKSPDVINGSPISQKIIYKENERFQYKCNMGYEYSERGDAVCTESGWRPLPSCEEKSCDNPYIPNGDYSPLRIKHRTGDEITYQCRNGFYPATRGNTAKCTSTGWIPAPRCTLKPCDYPDIKHGGLYHENMRRPYFPVAVGKYYSYYCDEHFETPSGSYWDHIHCTQDGWSPAVPCLRKCYFPYLENGYNQNYGRKFVQGKSIDVACHPGYALPKAQTTVTCMENGWSPTPRCIRVSFTL
notes: Protective CFHT with the FHR-1 SCR1/2 homodimerization domain at the N-terminus ('dimer CFHT'); copies 2 follows that description, dimer state not measured; no residue range stated; also called purified recombinant dCFHT.0; not shown: 6x His-TEV tag (87 bp, 29 residues by transgene size: 1839 against 1752)
In the case of B3, the figures for the “Fold Activity (Compared to CFHT-I62)” value with C3d ligand, with C3b protein [3] and with CRP [4] were 2.1 fold, 55.3 fold and 2.2 fold, respectively. Moreover, the “Fold Activity at Highest Dose (Relative to Control)” value with CRP [1] came to 6.4 fold; in the experiment with C3b protein [2] it was 22 fold.

B4: rCFHT-I62 Protein (other)
chain: EDCNELPPRRNTEILTGSWSDQTYPEGTQAIYKCRPGYRSLGNIIMVCRKGEWVALNPLRKCQKRPCGHPGDTPFGTFTLTGGNVFEYGVKAVYTCNEGYQLLGEINYRECDTDGWTNDIPICEVVKCLPVTAPENGKIVSSAMEPDREYHFGQAVRFVCNSGYKIEGDEEMHCSDDGFWSKEKPKCVEISCKSPDVINGSPISQKIIYKENERFQYKCNMGYEYSERGDAVCTESGWRPLPSCEEKSCDNPYIPNGDYSPLRIKHRTGDEITYQCRNGFYPATRGNTAKCTSTGWIPAPRCTLKPCDYPDIKHGGLYHENMRRPYFPVAVGKYYSYYCDEHFETPSGSYWDHIHCTQDGWSPAVPCLRKCYFPYLENGYNQNYGRKFVQGKSIDVACHPGYALPKAQTTVTCMENGWSPTPRCIRVSFTL
notes: Purified recombinant protective CFHT (I62, Y402); also called purified recombinant CFHT-I62 protein; recombinant CFHT-I62
As to B4, the figures for the “Fold Activity at Highest Dose (Relative to Control)” value with C3b protein [5] and with CRP [6] were 3.8 fold and 2.8 fold, respectively.

B5: CFHT.0 (pCTM297) (other)
chain: B4 chain
notes: also called unmodified CFHT; protective CFHT
B5: the “Fold Activity at Highest Dose (Relative to Control)” value in the experiment with C3b protein [2] is 1.5 fold.

Source of the values: US20240358855A1 (UNIVERSITY OF UTAH RESEARCH FOUNDATION, published 2024).
